# Data reported in patent US20070207960A1 (published 2007).
# B1: recombinant soluble human tissue factor (receptor, UniProt P13726 33-251, looked up)
# chain: SGTTNTVAAYNLTWKSTNFKTILEWEPKPVNQVYTVQISTKSGDWKSKCFYTTDTECDLTDEIVKDVKQTYLARVFSYPAGNVESTGSAGEPLYENSPEFTPYLETNLGQPTIQSFEQVGTKVNVTVEDERTLVRRNNTFLSLRDVFGKDLIYTLYYWKSSSSGKKTAKTNTNEFLIDVDKGENYCFSVQAVIPSRTVNRKSTDSPVECMGQEKGEFRE
# notes: extracellular domain; It was captured on the BIAcore chip by an immobilized anti-TF antibody; also called sTF; soluble human TF
# B2: rFVIIa(wt)-FFR (enzyme, human)
# chain 1: ANAFLEELRPGSLERECKEEQCSFEEAREIFKDAERTKLFWISYSDGDQCASSPCQNGGSCKDQLQSYICFCLPAFEGRNCETHKDDQLICVNENGGCEQYCSDHTGTKRSCRCHEGYSLLADGVSCTPTVEYPCGKIPILEKRNASKPQGR
# chain 2: IVGGKVCPKGECPWQVLLLVNGAQLCGGTLINTIWVVSAAHCFDKIKNWRNLIAVLGEHDLSEHDGDEQSRRVAQVIIPSTYVPGTTNHDIALLRLHQPVVLTDHVVPLCLPERTFSERTLAFVRFSLVSGWGQLLDRGATALELMVLNVPRLMTQDCLQQSRKVGDSPNITEYMFCAGYSDGSKDSCKGDSGGPHATHYRGTWYLTGIVSWGQGCATVGHFGVYTRVSQYIEWLQKLMRSEPRPGVLLRAPFP
# modifications: active site covalently modified with the peptide chloromethylketone FFRck
# notes: range 1-152;range 153-406; also called rFVIIa(wt)-FFRck; rFVIIai(wt)
# B3: rFVIIa(wt)-DEGR (enzyme, human)
# chain 1: B2 chain 1
# chain 2: B2 chain 2
# modifications: active site covalently modified with the peptide chloromethylketone DEGRck
# notes: range 1-152;range 153-406; also called rFVIIa(wt)-DEGRck; rFVIIai(wt)
# Tests used:
# [1] = target: T1, plasma-derived human FVII (Enzyme Research Labs) (human, UniProt P08709 61-466); test: surface plasmon resonance (BIAcore); sTF captured by immobilized anti-TF antibody, FVII injected
# T1 construct: mature; also called pdFVII; Standard FVII
# T1 sequence (looked up): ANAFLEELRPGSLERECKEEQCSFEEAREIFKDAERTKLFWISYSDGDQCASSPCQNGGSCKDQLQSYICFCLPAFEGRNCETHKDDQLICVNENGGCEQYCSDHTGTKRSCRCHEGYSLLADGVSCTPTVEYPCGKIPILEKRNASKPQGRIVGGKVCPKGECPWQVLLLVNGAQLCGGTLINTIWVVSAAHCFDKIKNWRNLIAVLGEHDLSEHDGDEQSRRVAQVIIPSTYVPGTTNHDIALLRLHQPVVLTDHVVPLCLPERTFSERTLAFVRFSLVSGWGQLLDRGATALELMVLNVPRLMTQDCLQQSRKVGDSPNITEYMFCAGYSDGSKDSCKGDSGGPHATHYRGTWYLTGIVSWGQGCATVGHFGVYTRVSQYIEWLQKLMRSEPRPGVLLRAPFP
# Text: An anti-TF antibody was immobilized on the BIAcore flow cell at high density and subsequently reacted with recombinant sTF. […] Data from reference cells containing the same amount of anti-TF antibody but no sTF were subtracted to correct for non-specific binding. […]
# [2] = target: T2, monoclonal antibody 231-7; test: competitive ELISA; rFVIIa competes with biotinylated plasma-derived FVII for adsorbed MoAb 231-7
# T2 construct: Conformation-sensitive antibody to the FVII EGF-1 domain; also called MoAb231-7
# Protocol: Following four washes with TBS-T w/o BSA containing 1 M NaCl, 100 μl streptavidin-alkaline phosphatase (1:25,000 dilution in TBS-T+BSA) was added for 1 hr, RT. After an additional four washes with TBS-T w/o BSA containing 1M NaCl, the colourimetric reaction was developed with 100 μl of 1 mg/ml p-nitrophenylphosphate in diethanolamine buffer (10% diethanolamine, 0.5 mM MgCl₂, pH 9.8). The reaction was stopped after 60 minutes by the addition of 25 μl of 0.5M EDTA to each well.
binder,measurement,setting,value
B1,Kd,[1],29 nM
B2,Relative Increase in Affinity (relative to rFVIIa (wt)),[2],1.4 fold
B3,Relative Increase in Affinity (relative to rFVIIa (wt)),[2],2.8 fold
